Results from the supplement of paper PMC7877785.
± gives the uncertainty stated by the source.

Test: self-splicing fitness, log relative to wild type (ln ratio); higher = more splicing; Tetrahymena group I intron in knt gene, E. coli kanamycin selection, DiMSum; sequences stand for … in CUCUCU…GGAGGGAAAAGUUAUCAGGCAUGCACCUGGUAGCUAGUCUUUAAACCAAUAGAUUGCAUCGGUUUAAAAGGCAAGACCGUCAAAUUGCGGGAAAGGGGUCAACAGCCGUUCAGUACCAAGUCUCAGGGGAAACUUUGAGAUGGCCUUGCAAAGGGUAUGGUAAUAAGCUGACGGACAUGGUCCUAACCACGCAGCCAAGUCCUAAGUCAACAGAUCUUCUGUUGAUAUGGAUGCAGUUCACAGACUAAAUGUCGGUCGGGGAAGAUGUAUUCUUCUCAUAAGAUAUAGUCGGACCUCUCCUUAAUGGGAGCUAGCGGAUGAAGUGAUGCAACACUGGAGCCGCUGGGAACUAAUUUGUAUGCGAAAGUAUAUUGAUUAGUUUUGGAGUACUCGUGGUCG
Outline: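 Fitness was computed with DiMSum as the error-weighted combination of replicate fold changes, kanamycin versus none, each normalised to wild type. The library randomised all eight intron nucleotides of the P1ex region, with the intron placed in the knt kanamycin-resistance gene on pET-22b(+) in E. coli BL21(DE3). Six replicate transformations were grown overnight at 37°C or 30°C on LB agar with or without 25 μg/mL kanamycin, plus 100 μg/mL carbenicillin, 50 μM IPTG and 0.2% rhamnose. Pooled colonies were amplicon-sequenced on an Illumina HiSeq 2500.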

Sequence | self-splicing fitness (ln) (30 °C) | self-splicing fitness (ln) (37 °C)
GUGAAGCAAUAUUACGAAAG | -1.41 ± 0.15 | -0.599 ± 0.15
GUACAGCAAUAUUACGCGGA | -2.49 ± 0.21 | -0.988 ± 0.15
ACACAGCAAUAUUACGCCAU | -3.18 ± 0.21 | -1.85 ± 0.15
ACUCAGCAAUAUUACGUAUA | -2.19 ± 0.11 | -1.11 ± 0.1
UAUUAGCAAUAUUACGUCCG | -0.732 ± 0.16 | -0.925 ± 0.19
GGGUAGCAAUAUUACGUCUU | -0.106 ± 0.1 | 0.268 ± 0.14
UUAAAGCAAUAUUACGCACA | 0.245 ± 0.098 | -0.401 ± 0.12
UCGAAGCAAUAUUACGAUCA | -1.46 ± 0.18 | -0.436 ± 0.23
ACUUAGCAAUAUUACGCCCC | -0.135 ± 0.33 | –
UUCAAGCAAUAUUACGCUUG | -2.15 ± 0.35 | -1.01 ± 0.26
UGAAAGCAAUAUUACGCUUA | -1.26 ± 0.17 | -0.254 ± 0.17
GUAUAGCAAUAUUACGGUUG | -3.77 ± 0.3 | -1.35 ± 0.3
GGUAAGCAAUAUUACGCAUA | -1.19 ± 0.15 | 0.0315 ± 0.17
AGGCAGCAAUAUUACGAACG | -1.11 ± 0.14 | 0.48 ± 0.16
CGAAAGCAAUAUUACGCACG | -3.27 ± 0.17 | -2.03 ± 0.15
GAUCAGCAAUAUUACGCCUC | -1.36 ± 0.18 | -0.876 ± 0.23
UCAAAGCAAUAUUACGUUGG | -3.81 ± 0.18 | -3 ± 0.24
UAGCAGCAAUAUUACGUGGU | -3.87 ± 0.2 | -2.79 ± 0.16
GAAGAGCAAUAUUACGGACG | -2.59 ± 0.27 | –
CGGAAGCAAUAUUACGGCCU | 0.133 ± 0.15 | 0.152 ± 0.16
UGGCAGCAAUAUUACGAACA | -0.346 ± 0.11 | 0.139 ± 0.13
UAUGAGCAAUAUUACGAGUU | -3.21 ± 0.17 | -2.57 ± 0.24
GGCCAGCAAUAUUACGUACC | -0.685 ± 0.13 | 1.43 ± 0.17
AGGGAGCAAUAUUACGUACC | -2.86 ± 0.33 | -1.52 ± 0.29
AAAAAGCAAUAUUACGCAAU | -0.871 ± 0.076 | -1.08 ± 0.13

Sequence | self-splicing fitness (ln) (30 °C) | self-splicing fitness (ln) (37 °C)
UUCGAGCAAUAUUACGUUCC | -2.94 ± 0.26 | -1.19 ± 0.3
UAGUAGCAAUAUUACGACGA | -0.284 ± 0.18 | 0.242 ± 0.16
UGCGAGCAAUAUUACGUCGC | -1.88 ± 0.15 | -2.32 ± 0.23
GUCUAGCAAUAUUACGGACA | -1.63 ± 0.18 | -0.275 ± 0.14
GCCUAGCAAUAUUACGAACG | -2.19 ± 0.19 | -0.701 ± 0.27
AUGGAGCAAUAUUACGCAGC | -2.14 ± 0.23 | -2.54 ± 0.33
CAAUAGCAAUAUUACGACUC | -3.34 ± 0.24 | -0.701 ± 0.12
GACCAGCAAUAUUACGACCA | -0.124 ± 0.17 | -0.054 ± 0.15
AUCGAGCAAUAUUACGAGCA | -1.2 ± 0.12 | -0.963 ± 0.14
CCCAAGCAAUAUUACGGGAG | -3.79 ± 0.13 | -2.29 ± 0.13
CGUUAGCAAUAUUACGGGAA | -2.14 ± 0.17 | -2.36 ± 0.28
UGUUAGCAAUAUUACGCGGC | – | -3.46 ± 0.29
GUACAGCAAUAUUACGCUGU | -3.5 ± 0.16 | -3 ± 0.21
AUUGAGCAAUAUUACGUGUC | -4.77 ± 0.26 | -2.53 ± 0.15
CUCAAGCAAUAUUACGUCGG | -2.02 ± 0.1 | -1.27 ± 0.11
GAAGAGCAAUAUUACGACAG | -3.36 ± 0.29 | -2.76 ± 0.28
UAGCAGCAAUAUUACGAGGU | -3.43 ± 0.15 | -1.7 ± 0.13
CAUAAGCAAUAUUACGCUUU | -3.86 ± 0.26 | -2.73 ± 0.24
AUCUAGCAAUAUUACGAUAC | -3.21 ± 0.35 | -2.27 ± 0.29
GGUCAGCAAUAUUACGAGGA | – | -1.73 ± 0.36
CAUAAGCAAUAUUACGUUUA | -2.97 ± 0.23 | -2.42 ± 0.28
AACGAGCAAUAUUACGACCG | -3.46 ± 0.34 | –
UUCGAGCAAUAUUACGGGUA | -1.16 ± 0.18 | -1.36 ± 0.15
AGAAAGCAAUAUUACGCGUC | -1.84 ± 0.12 | -1.32 ± 0.15
UCGGAGCAAUAUUACGAGCU | -2.89 ± 0.27 | –

Sequence | self-splicing fitness (ln) (30 °C) | self-splicing fitness (ln) (37 °C)
AUCAAGCAAUAUUACGGGCA | -1.42 ± 0.098 | -0.95 ± 0.098
AAAAAGCAAUAUUACGUUGC | -3.56 ± 0.13 | -2.44 ± 0.14
UUAAAGCAAUAUUACGCAAC | -3.92 ± 0.25 | -1.75 ± 0.14
UACUAGCAAUAUUACGGUCG | -0.0757 ± 0.12 | 0.338 ± 0.16
AUGGAGCAAUAUUACGACUU | -1.73 ± 0.1 | -1.08 ± 0.13
AGGGAGCAAUAUUACGCGGA | -2.2 ± 0.21 | -2.68 ± 0.3
UCGCAGCAAUAUUACGGAGU | -2.32 ± 0.21 | -1.92 ± 0.23
CCGAAGCAAUAUUACGUUUU | -3.83 ± 0.17 | -3.26 ± 0.18
GGCGAGCAAUAUUACGUGGG | -3.57 ± 0.44 | -1.44 ± 0.27
CUCGAGCAAUAUUACGACUA | -3.02 ± 0.33 | -0.507 ± 0.21
GUACAGCAAUAUUACGAUUG | -5.06 ± 0.25 | -2.87 ± 0.17
ACGGAGCAAUAUUACGGUCA | -3.14 ± 0.3 | -1.35 ± 0.18
AUGGAGCAAUAUUACGAUCG | – | -1.1 ± 0.42
CUUGAGCAAUAUUACGCGUA | -3.18 ± 0.35 | -2.31 ± 0.27
AUGGAGCAAUAUUACGCUCA | -1.46 ± 0.17 | -1.17 ± 0.18
CGUCAGCAAUAUUACGCUUG | -1.03 ± 0.098 | 0.41 ± 0.12
CUGAAGCAAUAUUACGUACA | -2.36 ± 0.21 | -1.39 ± 0.25
GCGUAGCAAUAUUACGGAAA | -3.29 ± 0.37 | -0.0155 ± 0.18
CAGAAGCAAUAUUACGGGCU | -3.96 ± 0.24 | -1.83 ± 0.16
UGCGAGCAAUAUUACGAGGA | -3.56 ± 0.18 | -2.75 ± 0.18
GUCAAGCAAUAUUACGGCCG | -2.31 ± 0.4 | –
CCGCAGCAAUAUUACGUUGC | -3.32 ± 0.14 | -2.7 ± 0.21
UUCUAGCAAUAUUACGAGUA | -0.88 ± 0.15 | -0.0809 ± 0.13
AGGUAGCAAUAUUACGCUUG | -1.541 ± 0.015 | -1.04 ± 0.034
CGAAAGCAAUAUUACGGGAA | -2.17 ± 0.4 | -2.08 ± 0.26

Sequence | self-splicing fitness (ln) (30 °C) | self-splicing fitness (ln) (37 °C)
UUGCAGCAAUAUUACGCACG | -1.2 ± 0.13 | -1.24 ± 0.12
GGGGAGCAAUAUUACGCCCA | -1.14 ± 0.19 | -0.0692 ± 0.27
GUUAAGCAAUAUUACGUCAA | -1.38 ± 0.11 | -1.33 ± 0.13
CUGAAGCAAUAUUACGUGGA | -4.08 ± 0.3 | -2.63 ± 0.27
AUGGAGCAAUAUUACGCAUC | -3.74 ± 0.14 | -3.29 ± 0.26
CUGAAGCAAUAUUACGACUA | -1.29 ± 0.16 | -0.875 ± 0.21
UCCAAGCAAUAUUACGCAAA | -2.18 ± 0.24 | -0.843 ± 0.17
CGAAAGCAAUAUUACGUUGC | -4.09 ± 0.17 | -3.23 ± 0.2
ACGGAGCAAUAUUACGGAUG | -2.66 ± 0.31 | -1.17 ± 0.28
CCCUAGCAAUAUUACGCGGG | -3.75 ± 0.23 | -1.92 ± 0.2
UAAUAGCAAUAUUACGAGGA | -3.68 ± 0.25 | -2.62 ± 0.16
GGUGAGCAAUAUUACGAAGU | -2.25 ± 0.23 | -1.67 ± 0.35
AAGGAGCAAUAUUACGACUU | -1.12 ± 0.086 | -1.26 ± 0.1
GGUUAGCAAUAUUACGGCUU | -0.26 ± 0.082 | 1.05 ± 0.096
CGUUAGCAAUAUUACGAUUC | -3.09 ± 0.19 | -1.68 ± 0.18
AAUUAGCAAUAUUACGCACG | -2.18 ± 0.2 | -0.641 ± 0.17
UAACAGCAAUAUUACGUUCC | -2.23 ± 0.11 | -2.28 ± 0.18
GUUUAGCAAUAUUACGCGGG | -2.42 ± 0.19 | -1.89 ± 0.19
GUGUAGCAAUAUUACGUGGU | -3.96 ± 0.27 | -1.17 ± 0.22
UAAUAGCAAUAUUACGCACU | -1.16 ± 0.11 | -1.02 ± 0.12
AGUUAGCAAUAUUACGAGGA | -2.32 ± 0.26 | -2.43 ± 0.25
CCUUAGCAAUAUUACGUGGA | -4.29 ± 0.34 | -2 ± 0.2
